Measurements as given in the supplement of paper PMC11246515.
± gives the standard deviation of the averaged measurements.

Test: total protein half-life in vivo (active degradation + dilution); higher = more stable protein
[1] = E. coli NCM3722 delta-clpP delta-lon delta-hslV, growth: N-lim chemostat, doubling time 6 h
[2] = E. coli NCM3722 delta-clpP, growth: N-lim chemostat, doubling time 6 h
[3] = E. coli NCM3722 delta-hslV, growth: N-lim chemostat, doubling time 6 h
[4] = E. coli NCM3722 delta-lon, growth: N-lim chemostat, doubling time 6 h
[5] = E. coli NCM3722 delta-smpB, growth: N-lim chemostat, doubling time 6 h
[6] = wild type E. coli NCM3722, growth: C-lim chemostat, doubling time 3 h
[7] = wild type E. coli NCM3722, growth: C-lim chemostat, doubling time 6 h
[8] = wild type E. coli NCM3722, growth: C-lim chemostat, doubling time 12 h
[9] = wild type E. coli NCM3722, growth: N-lim chemostat, doubling time 6 h
[10] = wild type E. coli NCM3722, growth: N-lim chemostat, doubling time 12 h
[11] = wild type E. coli NCM3722, growth: P-lim chemostat, doubling time 6 h
[12] = wild type E. coli NCM3722, growth: P-lim chemostat, doubling time 12 h

Sequence	total protein half-life in vivo [1]	total protein half-life in vivo [2]	total protein half-life in vivo [3]	total protein half-life in vivo [4]	total protein half-life in vivo [5]	total protein half-life in vivo [6]	total protein half-life in vivo [7]	total protein half-life in vivo [8]	total protein half-life in vivo [9]	total protein half-life in vivo [10]	total protein half-life in vivo [11]	total protein half-life in vivo [12]
MSKLLDRFRYFKQKGETFADGHGQVMHSNRDWEDSYRQRWQFDKIVRSTHGVNCTGSCSWKIYVKNGLVTWEIQQTDYPRTRPDLPNHEPRGCPRGASYSWYLYSANRLKYPLIRKRLIELWREALKQHSDPVLAWASIMNDPQKCLSYKQVRGRGGFIRSNWQELNQLIAAANVWTIKTYGPDRVAGFSPIPAMSMVSYAAGTRYLSLLGGTCLSFYDWYCDLPPASPMTWGEQTDVPESADWYNSSYIIAWGSNVPQTRTPDAHFFTEVRYKGTKTIAITPDYSEVAKLCDQWLAPKQGTDSALAMAMGHVILKEFHLDNPSDYFINYCRRYSDMPMLVMLEPRDDGSYVPGRMIRASDLVDGLGESNNPQWKTVAVNTAGELVVPNGSIGFRWGEKGKWNLESIAAGTETELSLTLLGQHDAVAGVAFPYFGGIENPHFRSVKHNPVLVRQLPVKNLTLVDGNTCPVVSVYDLVLANYGLDRGLEDENSAKDYAEIKPYTPAWGEQITGVPRQYIETIAREFADTAHKTHGRSMIILGAGVNHWYHMDMNYRGMINMLIFCGCVGQSGGGWAHYVGQEKLRPQTGWLPLAFALDWNRPPRQMNSTSFFYNHSSQWRYEKVSAQELLSPLADASKYSGHLIDFNVRAERMGWLPSAPQLGRNPLGIKAEADKAGLSPTEFTAQALKSGDLRMACEQPDSSSNHPRNLFVWRSNLLGSSGKGHEYMQKYLLGTESGIQGEELGASDGIKPEEVEWQTAAIEGKLDLLVTLDFRMSSTCLFSDIVLPTATWYEKDDMNTSDMHPFIHPLSAAVDPAWESRSDWEIYKGIAKAFSQVCVGHLGKETDVVLQPLLHDSPAELSQPCEVLDWRKGECDLIPGKTAPNIVAVERDYPATYERFTSLGPLMDKLGNGGKGISWNTQDEIDFLGKLNYTKRDGPAQGRPLIDTAIDASEVILALAPETNGHVAVKAWQALGEITGREHTHLALHKEDEKIRFRDIQAQPRKIISSPTWSGLESDHVSYNAGYTNVHELIPWRTLSGRQQLYQDHPWMRAFGESLVAYRPPIDTRSVSEMRQIPPNGFPEKALNFLTPHQKWGIHSTYSENLLMLTLSRGGPIVWISETDARELTIVDNDWVEVFNANGALTARAVVSQRVPPGMTMMYHAQERIMNIPGSEVTGMRGGIHNSVTRVCPKPTHMIGGYAQLAWGFNYYGTVGSNRDEFIMIRKMKNVNWLDDEGRDQVQEAKK	6.1 ± 1 h	5.33 ± 0.2 h	6.53 ± 0.28 h	6.11 ± 1.5 h	5.8 ± 0.67 h	2.8 ± 0.2 h	6.25 ± 1.3 h	11.5 ± 1.3 h	5.956 ± 0.043 h	12.43 ± 0.018 h	5.7 ± 0.32 h	11.4 ± 0.43 h
MSKNERMVGISRRTLVKSTAIGSLALAAGGFSLPFTLRNAAAAVQQAREKVVWGACSVNCGSRCALRLHVKDNEVTWVETDNTGSDEYGNHQVRACLRGRSIRRRINHPDRLNYPMKRVGKRGEGKFERISWDEALDTIASSLKKTVEQYGNEAVYIQYSSGIVGGNMTRSSPSASAVKRLMNCYGGSLNQYGSYSTAQISCAMPYTYGSNDGNSTTDIENSKLVVMFGNNPAETRMSGGGITYLLEKAREKSNAKMIVIDPRYTDTAAGREDEWLPIRPGTDAALVAGIAWVLINENLVDQPFLDKYCVGYDEKTLPADAPKNGHYKAYILGEGDDKTAKTPQWASQITGIPEDRIIKLAREIGTAKPAYICQGWGPQRQANGELTARAIAMLPILTGNVGISGGNSGARESTYTITIERLPVLDNPVKTSISCFSWTDAIDHGPQMTAIRDGVRGKDKLDVPIKFIWNYAGNTLVNQHSDINKTHEILQDESKCEMIVVIENFMTSSAKYADILLPDLMTVEQEDIIPNDYAGNMGYLIFLQPVTSEKFERKPIYWILSEVAKRLGPDVYQKFTEGRTQEQWLQHLYAKMLAKDPALPSYDELKKMGIYKRKDPNGHFVAYKAFRDDPEANPLKTPSGKIEIYSSRLAEIARTWELEKDEVISPLPVYASTFEGWNSPERRTFPLQLFGFHYKSRTHSTYGNIDLLKAACRQEVWINPIDAQKRGIANGDMVRVFNHRGEVRLPAKVTPRILPGVSAMGQGAWHEANMSGDKIDHGGCVNTLTTLRPSPLAKGNPQHTNLVEIEKI	5.78 h	–	–	–	–	–	–	–	–	–	–	–
MSKNYHIAVLPGDGIGPEVMTQALKVLDAVRNRFAMRITTSHYDVGGAAIDNHGQPLPPATVEGCEQADAVLFGSVGGPKWEHLPPDQQPERGALLPLRKHFKLFSNLRPAKLYQGLEAFCPLRADIAANGFDILCVRELTGGIYFGQPKGREGSGQYEKAFDTEVYHRFEIERIARIAFESARKRRHKVTSIDKANVLQSSILWREIVNEIATEYPDVELAHMYIDNATMQLIKDPSQFDVLLCSNLFGDILSDECAMITGSMGMLPSASLNEQGFGLYEPAGGSAPDIAGKNIANPIAQILSLALLLRYSLDADDAACAIERAINRALEEGIRTGDLARGAAAVSTDEMGDIIARYVAEGV	3.45 ± 0.8 h	2.56 ± 0.42 h	2.43 ± 0.12 h	2.96 ± 0.089 h	2.527 ± 0.018 h	3.23 ± 0.31 h	5.057 ± 0.042 h	8.72 ± 1.7 h	2.54 ± 0.19 h	3.52 ± 0.11 h	5.34 ± 0.7 h	9.08 ± 0.2 h
MSKQSQHVLIALPHPLLHLVSLGLVSFIFTLFSLELSQFGTQLAPLWFPTSIMMVAFYRHAGRMWPGIALSCSLGNIAASILLFSTSSLNMTWTTINIVEAVVGAVLLRKLLPWYNPLQNLADWLRLALGSAIVPPLLGGVLVVLLTPGDDPLRAFLIWVLSESIGALALVPLGLLFKPHYLLRHRNPRLLFESLLTLAITLTLSWLSMLYLPWPFTFIIVLLMWSAVRLPRMEAFLIFLTTVMMVSLMMAADPSLLATPRTYLMSHMPWLPFLLILLPANIMTMVMYAFRAERKHISESETHFRNAMEYSAIGMALVGTEGQWLQTNKALCQFLGYSQEELRGLTFQQLTWPEDLNKDLQQVEKLISGEINTYSMEKRYYNRNGDVVWALLAVSLVRHTDGTPLYFIAQIEDINELKRTEQVNQQLMERITLANEAGGIGIWEWELKPNIFSWDKRMFELYEIPPHIKPNWQVWYECVLPEDRQHAEKVIRDSLQSRSPFKLEFRITVKDGIRHIRALANRVLNKEGEVERLLGINMDMTEVKQLNEALFQEKERLHITLDSIGEAVVCIDMAMKITFMNPVAEKMSGWTQEEALGVPLLTVLHITFGDNGPLMENIYSADTSRSAIEQDVVLHCRSGGSYDVHYSITPLSTLDGSNIGSVLVIQDVTESRKMLRQLSYSASHDALTHLANRASFEKQLRILLQTVNSTHQRHALVFIDLDRFKAVNDSAGHAAGDALLRELASLMLSMLRSSDVLARLGGDEFGLLLPDCNVESARFIATRIISAVNDYHFIWEGRVHRVGASAGITLIDDNNHQAAEVMSQADIACYASKNGGRGRVTVYEPQQAAAHSERAAMSLDEQWRMIKENQLMMLAHGVASPRIPEARNLWLISLKLWSCEGEIIDEQTFRRSFSDPALSHALDRRVFHEFFQQAAKAVASKGISISLPLSVAGLSSATLVNDLLEQLENSPLPPRLLHLIIPAEAILDHAESVQKLRLAGCRIVLSQVGRDLQIFNSLKANMADYLLLDGELCANVQGNLMDEMLITIIQGHAQRLGMKTIAGPVVLPLVMDTLSGIGVDLIYGEVIADAQPLDLLVNSSYFAIN	4.93 ± 0.2 h	–	–	–	–	–	–	9.36 h	–	–	1.53 h	–
MSKRRYLTGKEVQAMMQAVCYGATGARDYCLILLAYRHGMRISELLDLHYQDLDLNEGRINIRRLKNGFSTVHPLRFDEREAVERWTQERANWKGADRTDAIFISRRGSRLSRQQAYRIIRDAGIEAGTVTQTHPHMLRHACGYELAERGADTRLIQDYLGHRNIRHTVRYTASNAARFAGLWERNNLINEKLKREEV [P0ADH7]	4.85 ± 0.3 h	–	–	–	1.18 h	0.333 h	–	–	–	–	–	–
MSKRTFAVILTLLCSFCIGQALAGGIVLQRTRVIYDASRKEAALPVANKGAETPYLLQSWVDNIDGKSRAPFIITPPLFRLEAGDDSSLRIIKTADNLPENKESLFYINVRAIPAKKKSDDVNANELTLVFKTRIKMFYRPAHLKGRVNDAWKSLEFKRSDHSLNIYNPTEYYVVFAGLAVDKTDLTSKIEYIAPGEHKQLPLPASGGKNVKWAAINDYGGSSGTETRPLQ	–	–	6.17 h	–	–	–	–	–	–	–	–	–
MSKSENLYSAARELIPGGVNSPVRAFTGVGGTPLFIEKADGAYLYDVDGKAYIDYVGSWGPMVLGHNHPAIRNAVIEAAERGLSFGAPTEMEVKMAQLVTELVPTMDMVRMVNSGTEATMSAIRLARGFTGRDKIIKFEGCYHGHADCLLVKAGSGALTLGQPNSPGVPADFAKYTLTCTYNDLASVRAAFEQYPQEIACIIVEPVAGNMNCVPPLPEFLPGLRALCDEFGALLIIDEVMTGFRVALAGAQDYYGVVPDLTCLGKIIGGGMPVGAFGGRRDVMDALAPTGPVYQAGTLSGNPIAMAAGFACLNEVAQPGVHETLDELTTRLAEGLLEAAEEAGIPLVVNHVGGMFGIFFTDAESVTCYQDVMACDVERFKRFFHMMLDEGVYLAPSAFEAGFMSVAHSMEDINNTIDAARRVFAKL	6.35 ± 2.3 h	4.99 ± 0.35 h	5 ± 0.21 h	5.33 ± 0.43 h	3.93 ± 0.1 h	3.45 ± 0.48 h	7.43 ± 0.21 h	11.3 ± 1.3 h	4.57 ± 0.2 h	7.897 ± 0.015 h	5.51 ± 0.059 h	12.6 ± 0.035 h
MSKSLQKPTILNVETVARSRLFTVESVDLEFSNGVRRVYERMRPTNREAVMIVPIVDDHLILIREYAVGTESYELGFSKGLIDPGESVYEAANRELKEEVGFGANDLTFLKKLSMAPSYFSSKMNIVVAQDLYPESLEGDEPEPLPQVRWPLAHMMDLLEDPDFNEARNVSALFLVREWLKGQGRV	4.86 ± 0.33 h	4.8 ± 1.8 h	3.56 ± 0.2 h	4.58 ± 0.89 h	3.4 ± 0.13 h	3.39 ± 0.13 h	5.24 ± 0.67 h	9.26 ± 1.9 h	3.9 ± 0.67 h	5.391 ± 0.048 h	5.95 ± 0.12 h	11.5 ± 1 h
MSKSRLTVFSFVRRFLLRLMVVLAVFWGGGIALFSVAPVPFSAVMVERQVSAWLHGNFRYVAHSDWVSMDQISPWMGLAVIAAEDQKFPEHWGFDVASIEKALAHNERNENRIRGASTISQQTAKNLFLWDGRSWVRKGLEAGLTLGIETVWSKKRILTVYLNIAEFGDGVFGVEAAAQRYFHKPASKLTRSEAALLAAVLPNPLRFKVSSPSGYVRSRQAWILRQMYQLGGEPFMQQHQLD	7.03 h	6.44 ± 0.48 h	6.04 ± 0.026 h	–	5.87 ± 0.34 h	3.16 h	–	10.8 ± 1.2 h	6.11 ± 0.23 h	12.3 ± 1.5 h	6.23 ± 0.25 h	12.8 ± 0.19 h
MSKTFARSSLCALSMTIMTAHAAEPPTNLDKPEGRLDIIAWPGYIERGQTDKQYDWVTQFEKETGCAVNVKTAATSDEMVSLMTKGGYDLVTASGDASLRLIMGKRVQPINTALIPNWKTLDPRVVKGDWFNVGGKVYGTPYQWGPNLLMYNTKTFPTPPDSWQVVFVEQNLPDGKSNKGRVQAYDGPIYIADAALFVKATQPQLGISDPYQLTEEQYQAVLKVLRAQHSLIHRYWHDTTVQMSDFKNEGVVASSAWPYQANALKAEGQPVATVFPKEGVTGWADTTMLHSEAKHPVCAYKWMNWSLTPKVQGDVAAWFGSLPVVPEGCKASPLLGEKGCETNGFNYFDKIAFWKTPIAEGGKFVPYSRWTQDYIAIMGGR	5.24 ± 0.43 h	5.67 ± 0.8 h	7.1 ± 0.7 h	7.128 ± 0.054 h	5.71 ± 0.53 h	3.27 ± 0.29 h	7.18 ± 0.46 h	13.3 ± 0.99 h	6.37 ± 0.074 h	14.3 ± 0.99 h	6.9 ± 1 h	13.8 ± 0.29 h
